One experiment has as its target HLA-A*26:02. The experiment can be described thus: IEDB peptide-MHC binding, purified MHC/direct/fluorescence; filed as Kd, often an IC50 or EC50 that approximates it; ≥ and ≤ were set here for values at or beyond the usual limits of such assays.
A further experiment has as its target HLA-A*26:01. Described as above. To be noted: source organism: Vibrio vulnificus CMCP6.

A value given as a limit tells only on which side of the number the result lay.

As a reminder, the Kd is the free concentration of one partner at which half of the binding sites on the other are occupied at equilibrium, for simple one-to-one binding. Higher therefore signals lower affinity. Consider LVALTLTSY, for which, in the experiment with HLA-A*26:02 (source organism: Yellow fever virus), the Kd stood at 180 nM.
As to HVIASMRHF, the results for the Kd with HLA-A*26:01 and in the experiment with HLA-A*26:02 (source organism: Vibrio vulnificus CMCP6) were 2 nM and at most 1 nM, respectively.

The values above are taken from the Immune Epitope Database (IEDB).
